In patent publication US6759384:
Non-standard residues stand in square brackets, D forms with d. *: point of attachment. 2Nal = N[C@@H](Cc1ccc2ccccc2c1)C(=O)O; Chg = N[C@H](C(=O)O)C1CCCCC1; Tos = Cc1ccc(S(=O)(=O)*)cc1

Tests used:
[1] = target: human factor Xa (Enzyme Research Laboratories, Inc.) (human) (UniProt P00742); assay: cell-based or functional assay
[2] = target: human factor Xa (Enzyme Research Laboratories, Inc.) (human) (UniProt P00742); assay: chromogenic FXa inhibition
[3] = target: human factor Xa (Enzyme Research Laboratories, Inc.) (human) (UniProt P00742); assay: chromogenic enzyme inhibition, IC50 corrected for substrate
[4] = target: human thrombin (Enzyme Research Laboratories, Inc.) (human) (UniProt P00734); assay: as above

Sequence of human factor Xa (Enzyme Research Laboratories, Inc.) (human) (P00742 41-179 limits assumed, chain 1 of 2): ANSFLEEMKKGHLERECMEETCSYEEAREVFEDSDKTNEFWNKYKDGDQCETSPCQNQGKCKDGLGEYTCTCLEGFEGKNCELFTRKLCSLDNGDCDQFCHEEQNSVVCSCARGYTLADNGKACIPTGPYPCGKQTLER
Sequence of human factor Xa (Enzyme Research Laboratories, Inc.) (human) (P00742 235-488 limits assumed, chain 2 of 2): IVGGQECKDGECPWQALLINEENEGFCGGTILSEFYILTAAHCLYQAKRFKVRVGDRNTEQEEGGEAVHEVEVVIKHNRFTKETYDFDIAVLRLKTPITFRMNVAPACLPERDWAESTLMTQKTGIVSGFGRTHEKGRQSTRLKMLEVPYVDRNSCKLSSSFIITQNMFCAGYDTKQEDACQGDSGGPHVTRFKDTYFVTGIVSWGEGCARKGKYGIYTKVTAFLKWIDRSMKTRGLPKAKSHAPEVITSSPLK

Substance | Ki [2] | also measured
TENSTOP (N-alpha-tosyl-Gly-p-amidinophenylalanine methyl ester) |  | Ki [3]: 2 µM; Ki [4]: 2 µM
Tfa-(iBu)Nal(2)-Chg-R-L-P-NH2 (peptide) | < 100 µM | 
Tfa-(iBu)Y-Chg-R-NH2 (peptide) | < 100 µM | 
Tfa-(iBu)Y-I-R-NH2 (peptide) | < 100 µM | 
Tfa-(iBu)Y-I-R-OH (peptide) | < 100 µM | 
Tfa-Y-Chg-R-NH2 (peptide) | < 100 µM | 
Tos-Tyr-Ile-Arg-NH2 | < 100 µM | 
Y-I-R-NH2 (peptide) | < 100 µM | 
pAph-Chg-Arg-Leu-Pro-NH2 (peptide) | < 100 µM | 
y-I-R-NH2 (peptide) | < 100 µM | 
y-Tle-R-Nle-P-NH2 (peptide) | < 100 µM | 

Now from value to substance, other results behind:

Ki [2] | Substance | also measured
< 100 µM | Ac-Y-Chg-R-NH2 (peptide) | EC50 (concentration giving 50% inhibition of coagulation), in vitro dilute prothrombin time assay, pooled human plasma [1]: 0.0025 µM
< 100 µM | Ac-[2Nal][Chg]RLP-NH2 | EC50 (concentration giving 50% inhibition of coagulation), in vitro dilute prothrombin time assay, pooled human plasma [1]: 0.14 µM
< 100 µM | Pgl(OH)-I-R-L-NH2 (peptide) | 
< 100 µM | Ph-C(NOCH2Ph)-CO-I-R-NH2 (peptide) | 
< 100 µM | Tfa-(iBu)F(pNH2)-Chg-R-NH2 (peptide) | 
< 100 µM | Tfa-(iBu)Y-I-PalMe(3)-NH2 (peptide) | 
< 100 µM | pal-I-R-C(SBut)-Hyp-NH2 (peptide) | 
< 100 µM | y-Chg-R-L-NH2 (peptide) | 
< 100 µM | y-Chg-R-NH2 (peptide) | 
